Source: US20180072810A1 (published 2018)

Target: T1, cynomolgus PD-1 Fc fusion (cynomolgus monkey, UniProt B0LAJ3 25-170)
T1 construct: also called Cyno PD-1 (ELISA)
Test: ELISA on plate-bound cynomolgus PD-1 Fc fusion

T1 sequence (B0LAJ3 entry or part of it limits assumed, form in doubt): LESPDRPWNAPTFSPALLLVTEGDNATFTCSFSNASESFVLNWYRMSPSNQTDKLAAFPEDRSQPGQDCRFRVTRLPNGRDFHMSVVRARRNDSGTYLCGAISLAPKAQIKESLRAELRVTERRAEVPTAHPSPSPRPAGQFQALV

EC50: 0.07 nM
B1: Nivolumab (antibody, V domains shown)
VH: QVQLVESGGGVVQPGRSLRLDCKASGITFSNSGMHWVRQAPGKGLEWVAVIWYDGSKRYYADSVKGRFTISRDNSKNTLFLQMNSLRAEDTAVYYCATNDDYWGQGTLVTVSS
VL: EIVLTQSPATLSLSPGERATLSCRASQSVSSYLAWYQQKPGQAPRLLIYDASNRATGIPARFSGSGSGTDFTLTISSLEPEDFAVYYCQQSSNWPRTFGQGTKVEIK
